PMC9499506, “TNF-α and IL-1β Modulate Blood-Brain Barrier Permeability and Decrease Amyloid-β Peptide Efflux in a Human Blood-Brain Barrier Model” (International Journal of Molecular Sciences, 2022)
Blank lines part the entries; values can stand above or below the molecule they belong to.

Legend:
BLECs [1] = conditions: MTT assay; 10% (v/v) DMSO, 24 h; positive control of cell toxicity; mean of at least three independent experiments in triplicate
Protocol: An MTT assay was performed as a preliminary test to determine their effect on BLEC viability and to validate the chosen concentrations. Dimethyl sulfoxide (DMSO) at 10% (v/v) was used as a positive control of cell toxicity.
After 6 days of coculture, TNF-α or IL-1β were added to the basolateral compartment (brain side) at 10 ng·mL^−1 for 24 h, at 37 °C and 5% CO2, to mimic CNS inflammation condition. Each condition was studied in triplicate.
The standard MTT [3-(4,5-dimethylthiazol-2-yl)-2,5-diphenyltetrazolium bromide] assay (AR1156, Boster Biological Technology, Pleasanton, CA, USA) was performed to determine BLEC viability. Briefly, after coculture treatments, culture medium was removed and replaced with worm Ringer-Hepes (RH; 150 mM NaCl, 5.2 mM KCl, 2.2 mM CaCl2, 0.2 mM MgCl2–6H2O, 6 mM NaHCO3, 5 mM HEPES, 2.8 mM glucose; pH: 7.4) in basolateral compartment and with MTT solution (0.5 mg·mL^−1) in RH at in the opposite compartment for 3 h at 37 °C and 5% CO2. […] Aliquot was sampled in 96-well plate and the optical density (OD) was measured with a microplate reader (Synergy H1, BioTek. Colmar, France) at the wavelength of 570 and 630 nm. The percentage of relative cell viability compared to the control condition was subsequently determined using the following formula: % relative cell viability = ((OD570 − OD630) condition)/((OD570 – OD630)control) × 100.

BLECs [2] = assay: Aβ1–40Cy5 peptide / FITC-inulin transport across untreated BLECs (Papp, transcytosis quotient); type: in vitro ADME, human; conditions: 30 min, 37 °C, mean ± SEM; for apparent permeability coefficient (Papp), efflux transport, control: untreated human BLECs on Transwell insert, basolateral-to-apical, 10 nM Aβ1–40Cy5 with 1 µM FITC-inulin in RH-HSA 0.1% pH 7.4, slight agitation, fluorescence, at least three independent experiments in triplicate
Protocol: As TNF-α and IL-1β modulated the protein expression levels of LRP1, BCRP and PICALM (Figure 4), we investigated the effect of these cytokines on the transport of Aβ peptide across the BBB. After 24 h of treatment with proinflammatory cytokines, the apical-to-basolateral (influx) and basolateral-to-apical (efflux) Aβ1–40Cy5 peptide transports across the BLECs were assessed in the presence of FITC-inulin. The Aβ1–40 peptide was used in all experiments, as it is the most abundant amyloid peptide found on cerebral blood vessels. FITC-inulin was used to determine the nonspecific transcytosis quotient (Figure 5A). Indeed, unlike Aβ peptide, FITC-inulin is not actively cleared at the BBB and acts as a reference marker of paracellular permeability, thus as previously reported.
(§1) As described previously, the human in vitro blood-brain barrier (BBB) model based on the acquisition of the human brain-like endothelial cell (BLEC) phenotype was used for this study. This BBB model corresponds to a coculture of primary human endothelial cells (ECs) derived from CD34^+ cord blood hematopoietic stem cells and bovine brain pericytes, isolated as described by Vandenhaute and colleagues. Informed consent was obtained from all infants’ parents for the umbilical cord blood collection and use. Procedures for isolation of cells from umbilical cord were approved by the French Ministry of Higher Education and Research (CODECOH DC2011-1321, approved 31 January 2013) and by the local investigational review board (Béthune Maternity Hospital, Beuvry, France). Briefly, 8 × 10^4 ECs at passage 6 were seeded onto Matrigel-coated (BD Biosciences, San Jose, CA, USA) insert (pore size 0.4 μm, Costar Transwell inserts, Corning Inc., Corning, New York, NY, USA. Endothelial cells were cocultured with bovine brain pericytes at passage 10 in a 12-well plate gelatin-coated with ECM-5. Every two days, ECM-5 was changed until experiment. However, a minimum of 5 days of culture were required for the ECs to develop the BLEC phenotype and a maximum of 21 days of BLEC phenotype stability has been determined. Once BLEC phenotype was acquired, these cells delimited two compartments, one mimicking the blood side (corresponding to the apical compartment) and the other the brain side (corresponding to the basolateral side). […]
After proinflammatory cytokine treatments, the influx (apical-to-basolateral) and the efflux (basolateral-to-apical) transport of Aβ1–40 peptides across BLECs were investigated as previously described. […] The BBB integrity was determined by measuring the endothelial permeability of a radioactive integrity marker, ^14C-sucrose, using the same method of calculation as described in Section 4.4. […]

BLEC monolayer = assay: Endothelial permeability coefficient of lucifer yellow across untreated BLEC monolayer; type: in vitro ADME, human; conditions: mean ± SEM
From the text: as §1, with “Procedures for isolation of cells from umbilical cord were approved by the French Ministry of Higher Education and Research (CODECOH DC2011-1321, approved 31 January 2013) and by the local investigational review board (Béthune Maternity Hospital, Beuvry, France).” left out
The BLEC monolayer integrity was evaluated after each treatment using the method described by Dehouck and colleagues. […]

Molecule: C[S+](C)[O-] [DMSO, Dimethyl sulfoxide, reference compound]
- decrease of BLEC viability compared to control (BLECs [1]): 26.5%

Molecule: FITC-inulin
- apparent permeability coefficient (Papp), efflux transport, control (BLECs [2]): 1.41 ± 0.03 × 10^−6 cm·min^−1

- transcellular PeLY, control BLECs (BLEC monolayer; PeLY at 37 °C minus PeLY at 4 °C): 0.36 ± 0.02 × 10^−3 cm·min^−1
- paracellular PeLY, control BLECs (BLEC monolayer; as total PeLY but at 4 °C (transcellular pathway inhibited), 50 µM LY in RH buffer, fluorescence): 0.18 ± 0.01 × 10^−3 cm·min^−1
Molecule: Lucifer Yellow CH dilithium salt [LY]

Molecule: human amyloid-β peptide (1–40)-Cy5 [Aβ1–40Cy5]
- transcytosis quotient of Aβ1–40Cy5, efflux direction, control (BLECs [2]; efflux Aβ1–40Cy5 Papp / efflux FITC-inulin Papp, untreated BLECs): 3.22 ± 0.13
- transcytosis quotient of Aβ1–40Cy5, influx direction, control (BLECs [2]; influx Aβ1–40Cy5 Papp / influx FITC-inulin Papp, untreated BLECs): 3.10 ± 0.25
- apparent permeability coefficient (Papp), efflux transport, control (BLECs [2]): 4.47 ± 0.16 × 10^−6 cm·min^−1
